This experiment concerns the target E. coli RNAP core enzyme (E. coli). Put plainly: single-molecule fluorescence colocalisation.

“Cy5-labeled E. coli σ^70 factor (from UniProt P00579 1-613) (natural protein)” yielded a percent of Cy3-RNA signal colocalized with Cy5 on σ^70 of 35% and a percent of initially-stalled transcription complexes retaining σ of 75%.

The record behind these values is paper doi:10.1101/684738.
